Test results as given in PMC3517540, “Versatile Membrane Deformation Potential of Activated Pacsin” (PLoS ONE, 2012).
One block for each binder: values may come before it.

Experiments:
[1] = target: T1, Human full-length pacsin-1 (human, UniProt Q9BY11 1-444); test: pull-down; GST-PRD baits on GST SpinTrap resin, purified pacsin-1 prey 2 h at 4°C; 25 mM Tris-Cl pH 7.5, 100 mM NaCl; eluted with 10 mM glutathione; SDS-PAGE and Coomassie staining; settings: both partners purified
T1 construct: pacsin-1 (syndapin-1), human, full length; The His6-SUMO moiety was cleavable with Ulp-1; also called pacsin isoform 1; syndapin; source: modified pET28a expression plasmid, purified as described previously [27], [35]
T1 sequence (Q9BY11 whole entry, canonical isoform): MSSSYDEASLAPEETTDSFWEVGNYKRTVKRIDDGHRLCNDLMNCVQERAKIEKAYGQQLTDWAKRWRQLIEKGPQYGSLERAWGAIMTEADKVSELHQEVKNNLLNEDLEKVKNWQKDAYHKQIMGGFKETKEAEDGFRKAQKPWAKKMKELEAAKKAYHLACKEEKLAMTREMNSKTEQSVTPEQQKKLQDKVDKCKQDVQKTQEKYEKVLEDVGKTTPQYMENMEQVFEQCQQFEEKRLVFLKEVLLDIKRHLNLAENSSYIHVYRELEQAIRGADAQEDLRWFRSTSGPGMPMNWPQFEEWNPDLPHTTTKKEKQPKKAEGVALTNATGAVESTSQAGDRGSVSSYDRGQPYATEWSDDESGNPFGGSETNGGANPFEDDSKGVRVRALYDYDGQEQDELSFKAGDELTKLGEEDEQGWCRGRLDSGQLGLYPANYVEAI

[2] = target: T1, Human full-length pacsin-1; test: SEC; pacsin-1 (40 µM) and GST-PRD (80 µM) incubated for 15 min, then size-exclusion chromatography; fractions analysed by SDS-PAGE and Coomassie staining; settings: both partners purified

- binding result [1]: binds
B1: GST-PRD^trunc1 (mouse dynamin-1 PRD aa747-810 fused to GST) (domain or fragment, UniProt P39053 747-810, looked up)
chain: TTTVSTPMPPPVDDSWLQVQSVPAGRRSPTSSPTPQRRAPAVPPARPGSRGPAPGPPPAGSALG
notes: dynamin-1 PRD, mouse, aa747-810; also called tr1; source: purified as GST fusion protein (GSTrap, Superdex 200 SEC)

- binding result [2]: binds
B2: Mouse dynamin-1 proline-rich domain (residues 747-842) fused to GST (domain or fragment, UniProt P39053 747-842, looked up)
chain: TTTVSTPMPPPVDDSWLQVQSVPAGRRSPTSSPTPQRRAPAVPPARPGSRGPAPGPPPAGSALGGAPPVPSRPGASPDPFGPPPQVPSRPNRAPPG
notes: dynamin-1 proline-rich domain (PRD), mouse, residues 747-842; 100% identical to the human dynamin-1 PRD; Construct from the De Camilli laboratory; also called GST-PRD; PRD^wt; source: expression vector pGEX-6P-1, purified (GSTrap, Superdex 200 SEC)
